Reference: PMC11014265
Like-named read-outs stand apart in the source and are kept apart here.

T1: HrpA1-630 (Escherichia coli, UniProt P43329 1-630)
T1 sequence: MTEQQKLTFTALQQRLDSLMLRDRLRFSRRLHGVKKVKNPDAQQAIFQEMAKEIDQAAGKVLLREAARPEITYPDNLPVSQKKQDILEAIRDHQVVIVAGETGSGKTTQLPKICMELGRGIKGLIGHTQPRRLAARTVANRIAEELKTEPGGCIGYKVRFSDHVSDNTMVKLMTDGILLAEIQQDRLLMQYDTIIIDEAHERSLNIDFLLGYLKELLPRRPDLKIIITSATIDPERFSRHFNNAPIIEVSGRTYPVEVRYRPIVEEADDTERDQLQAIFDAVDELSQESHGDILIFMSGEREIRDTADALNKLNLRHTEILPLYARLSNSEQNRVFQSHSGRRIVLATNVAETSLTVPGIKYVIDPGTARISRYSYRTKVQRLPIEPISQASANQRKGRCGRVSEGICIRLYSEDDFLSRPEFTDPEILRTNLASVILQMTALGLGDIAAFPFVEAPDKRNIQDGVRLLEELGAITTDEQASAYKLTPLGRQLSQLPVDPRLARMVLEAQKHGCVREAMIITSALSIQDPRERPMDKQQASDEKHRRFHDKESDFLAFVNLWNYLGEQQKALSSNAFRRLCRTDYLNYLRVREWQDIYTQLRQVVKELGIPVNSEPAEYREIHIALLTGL

B1: D-C11 i-motif (structured_DNA)
DNA 1: CCCCCCCCCCC
DNA 2: CCCCCCCCCCC

What was measured:
HrpA1-630 [1] = biological target: T1, HrpA1-630; assay: crystal structure
HrpA1-630 [2] = biological target: T1, HrpA1-630; assay: crystal structure; remark: listed apart in the source

| Binder | binding result (HrpA1-630 [1]) | binding result (HrpA1-630 [2]) |
| --- | --- | --- |
| CCCCCCCCCCC (ssDNA) [D-C11, C2 complex] | binds |  |
| B1 |  | binds |
